Assay results from patent US20090263836A1.
“And” between values parts separate entries of the source, which are not always exact repeats. Equal values may be shown once. Read-outs that look alike come from different tables or passages of the source.

What was measured:
[1] = target: BoNT/A binding domain (rBoNT/A-HC) (Clostridium botulinum)
[2] = target: BoNT/A binding domain (rBoNT/A-HC) (Clostridium botulinum); remark: listed apart in the source

BoNT/A binding domain (rBoNT/A-HC) (Clostridium botulinum), sequence (P0DPI1 873-1296): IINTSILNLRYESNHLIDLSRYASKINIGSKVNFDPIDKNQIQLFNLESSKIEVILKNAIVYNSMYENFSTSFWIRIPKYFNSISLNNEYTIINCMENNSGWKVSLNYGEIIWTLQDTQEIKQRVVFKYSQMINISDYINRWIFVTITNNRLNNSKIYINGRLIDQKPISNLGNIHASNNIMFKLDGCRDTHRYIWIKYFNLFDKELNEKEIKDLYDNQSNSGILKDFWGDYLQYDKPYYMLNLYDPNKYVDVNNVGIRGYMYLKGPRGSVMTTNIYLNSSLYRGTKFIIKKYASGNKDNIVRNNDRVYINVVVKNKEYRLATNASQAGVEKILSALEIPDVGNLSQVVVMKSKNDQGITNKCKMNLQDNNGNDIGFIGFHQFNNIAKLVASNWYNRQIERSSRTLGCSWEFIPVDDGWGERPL

“FGFR3 (transfected, pReceiver-M02/FGFR3) (receptor)” was tested, and the Percentage increase [1] was 73%, the RUMax [1] was 225 RU and 110 RU and the Percentage increase [2] was 46% and 38% and 40%. The RUMax [2] was 510 RU and 450 RU.

In the case of “SV2C (transfected, pReceiver-M02/SV2C) (receptor)”, the Percentage increase [1] is reported as 8% and 6% and the RUMax [1] is reported as 140 RU and 85 RU.

With “FGFR1 (transfected, pReceiver-M02/FGFR1) (receptor)” the RUMax [2] was 480 RU and 470 RU and 330 RU.

With “FGFR2 (transfected, pReceiver-M02/FGFR2) (receptor)” the Percentage increase [2] was 46% and 24% and 40% and the RUMax [2] was 510 RU and 460 RU and 450 RU.

FGFR3 and SV2C co-transfected was tested, and the Percentage increase [1] was 27% and 13% and the RUMax [1] was 165 RU and 90 RU.
